Measurements reported in US20250289893A1 (OXFORD UNIVERSITY INNOVATION, published 2025).

Experiments:
[1] = biological target: T1, human CD1a protein (pool B) (human, UniProt P06126 18-295, limits assumed); test: SPR (Biacore T200), antibody captured, human CD1a titrated, heterogeneous ligand model (KD2)
T1 construct: Recombinant protein of the ELISA (coated) and the Biacore T200 titration; whole entry named; also called human CD1a pool B; full length CD1a
Method: (§1) The affinity of the purified antibodies to human CD1a was assessed using a Biacore T200 instrument (GE Healthcare) by capturing the antibody to an immobilized anti-species IgG F(ab′)2 followed by titration of human CD1a. Affinipure Goat anti-species IgG-F(ab′)2 fragment specific (Jackson ImmunoResearch) was immobilized on a CM5 Sensor Chip (GE Healthcare) via amine coupling chemistry to a capture level of ˜5000 response units (RUs). HBS-EP+ buffer (10 mM HEPES pH 7.4, 0.15 M NaCl, 3 mM EDTA, 0.05% Surfactant P20, GE Healthcare) was used as the running buffer with a flow rate of 10 μL/min. A 10 μL injection of test antibody at 0.5 μg/mL was used for capture by the immobilized Goat Anti-species Fab.
(§2) The surface was regenerated between cycles by injection of 2×10 μL of 40 mM HCl, interspersed by a 10 μL injection of 5 mM NaOH at flowrate of 10 μL/min. Background subtraction binding curves were analyzed using the Biacore T200 evaluation software following standard procedures. Kinetic parameters were determined from the fitting algorithm. This assay was performed at the clone supernatant and purified antibody stage.
(§3) Affinity was required to be <100 nM to be considered for progression.

[2] = biological target: T2, human CD1a expressed on cells (human, UniProt P06126 17-327; P61769 21-119); test: flow cytometry, HEK-293 cells, 1 µg/ml antibody
T2 construct: also called HEK - CD1a; C1R - CD1a
Method: (§4) Binding to proteins expressed on HEK, C1R and MOLT4 cell lines was assessed. […] The C1R-CD1a, C1R-empty vector and MOLT4 cell lines were washed in 1×PBS on the day required. All cell lines were counted and resuspended in 1×PBS and then stained for 30 minutes at 37° C. using the DiI or DiO cellular stains (Invitrogen). Cells were washed with flow cytometry buffer (1% bovine serum albumin, 2 mM EDTA and 0.1% sodium azide in PBS) before mixing 2 DiI-stained and DiO-stained populations together. The cells (20 μl/well) were then added to dilutions of antibody sample (B cell culture supernatant, TAP supernatant, clone supernatant, purified antibody solution) (20 μl/well) and incubated for 1 hour at 4° C. in a flow cytometry assay plate, before being washed with flow cytometry buffer. 10 μl/well of Alexafluor647-conjugated goat anti-species IgG Fc-specific F(ab′)2 fragment (Jackson ImmunoResearch), diluted 1:2500 in flow cytometry buffer, was added and incubated at 4° C. for 30 minutes, followed by washing with wash buffer. The fluorescence intensity was then measured on an iQue screener PLUS.
(§5) HEK-293 cells were transiently transfected with human CD1a, CD1b, CD1c or CD1d and co-transfected with human β2M.

[3] = biological target: T1, human CD1a protein (pool B); test: ELISA, 0.1 µg/ml antibody
Method: (§6) CD1a-specific antibodies were identified by ELISA. […] 20 μl/well of peroxidase-conjugated goat anti-species IgG Fc-specific F(ab′)2 fragment (Jackson ImmunoResearch), diluted 1:5000 in block buffer was added and incubated at room temperature for 1 hour, followed by washing with wash buffer.
The antibodies were titrated through a dilution series and compared to a control rabbit IgG antibody.

[4] = biological target: Chinese variant CD1a protein (human) (UniProt P06126); test: ELISA, 0.01 µg/ml antibody
Chain of Chinese variant CD1a protein (human) (P06126 18-295, change not shown): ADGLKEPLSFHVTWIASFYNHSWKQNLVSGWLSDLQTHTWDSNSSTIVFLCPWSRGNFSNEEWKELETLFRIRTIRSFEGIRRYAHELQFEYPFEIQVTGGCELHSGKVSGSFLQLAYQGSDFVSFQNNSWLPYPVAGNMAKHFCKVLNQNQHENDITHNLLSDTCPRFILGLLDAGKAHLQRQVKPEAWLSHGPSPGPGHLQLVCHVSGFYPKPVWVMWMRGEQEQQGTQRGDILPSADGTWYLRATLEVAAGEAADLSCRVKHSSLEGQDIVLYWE

[5] = biological target: T2, human CD1a expressed on cells; test: flow cytometry, MOLT4 cells, 10 µg/ml antibody
Method: (§7) CD1a-specific antibodies were identified by flow cytometry. Binding to proteins expressed on HEK, C1R and MOLT4 cell lines was assessed. […] The C1R-CD1a, C1R-empty vector and MOLT4 cell lines were washed in 1×PBS on the day required. All cell lines were counted and resuspended in 1×PBS and then stained for 30 minutes at 37° C. using the DiI or DiO cellular stains (Invitrogen). Cells were washed with flow cytometry buffer (1% bovine serum albumin, 2 mM EDTA and 0.1% sodium azide in PBS) before mixing 2 DiI-stained and DiO-stained populations together. The cells (20 μl/well) were then added to dilutions of antibody sample (B cell culture supernatant, TAP supernatant, clone supernatant, purified antibody solution) (20 μl/well) and incubated for 1 hour at 4° C. in a flow cytometry assay plate, before being washed with flow cytometry buffer. 10 μl/well of Alexafluor647-conjugated goat anti-species IgG Fc-specific F(ab′)2 fragment (Jackson ImmunoResearch), diluted 1:2500 in flow cytometry buffer, was added and incubated at 4° C. for 30 minutes, followed by washing with wash buffer. The fluorescence intensity was then measured on an iQue screener PLUS.
(§8) Binding was quantified as fold change in fluorescence intensity geomean over background assessed by flow cytometry.

[6] = biological target: T3, human CD1c expressed on HEK-293 cells (human, UniProt P29017 18-333; P61769 21-119); test: flow cytometry, HEK-293 cells
T3 construct: also called HEK - CD1c
Method: as §7

[7] = biological target: T4, human CD1d expressed on HEK-293 cells (human, UniProt P15813 20-335; P61769 21-119); test: flow cytometry, HEK-293 cells
T4 construct: also called HEK - CD1d
Method: as §7

[8] = biological target: T5, human CD1b expressed on HEK-293 cells (human, UniProt P29016 18-333; P61769 21-119); test: flow cytometry, HEK-293 cells
T5 construct: also called HEK - CD1b
Method: as §7

[9] = biological target: Chinese variant CD1a protein (human) (UniProt P06126); test: ELISA, 10 µg/ml antibody
[10] = biological target: T6, Cynomolgus monkey CD1a expressed on HEK-293 cells (Cynomolgus monkey, UniProt A0A2K5VQ68 17-326); test: flow cytometry, HEK-293 cells, 10 µg/ml antibody
T6 sequence (A0A2K5VQ68 entry or part of it): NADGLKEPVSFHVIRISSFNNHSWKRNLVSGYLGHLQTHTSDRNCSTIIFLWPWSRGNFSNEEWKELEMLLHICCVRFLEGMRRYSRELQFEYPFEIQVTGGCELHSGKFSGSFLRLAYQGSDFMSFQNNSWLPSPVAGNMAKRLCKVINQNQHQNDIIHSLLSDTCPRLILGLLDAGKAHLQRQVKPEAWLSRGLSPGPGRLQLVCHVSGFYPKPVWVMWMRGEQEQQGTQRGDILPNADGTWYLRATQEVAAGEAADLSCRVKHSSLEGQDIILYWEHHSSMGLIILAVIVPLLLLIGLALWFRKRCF
Method: as §4, §8

[11] = biological target: Chinese variant CD1a protein (human) (UniProt P06126); test: ELISA, 0.1 µg/ml antibody
[12] = biological target: T2, human CD1a expressed on cells; test: flow cytometry, MOLT4 cells, 0.1 µg/ml antibody
Method: as §7, §8

[13] = biological target: chimeric CD1a pool B protein [human CD1a lipid binding domain, mouse CD1d Ig domain] (human; mouse, UniProt P06126 18-201; P11609 205-297, limits assumed); test: ELISA, 0.1 µg/ml antibody
Chain of chimeric CD1a pool B protein [human CD1a lipid binding domain, mouse CD1d Ig domain] (P06126 other isoform, or with tags, fused parts or gaps mutant limits assumed): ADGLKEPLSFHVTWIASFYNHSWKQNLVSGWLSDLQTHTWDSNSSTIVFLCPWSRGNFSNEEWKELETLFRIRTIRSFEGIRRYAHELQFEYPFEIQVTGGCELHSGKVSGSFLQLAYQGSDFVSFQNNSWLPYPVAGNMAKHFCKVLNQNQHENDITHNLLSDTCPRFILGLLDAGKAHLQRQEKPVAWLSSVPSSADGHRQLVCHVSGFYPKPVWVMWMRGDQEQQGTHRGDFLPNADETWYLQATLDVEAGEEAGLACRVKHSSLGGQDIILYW
Method: as §6
The antibodies were titrated through a dilution series and compared to a control rabbit IgG antibody. […] Data shown for purified antibodies.

[14] = biological target: T1, human CD1a protein (pool B); test: SPR (Biacore T200), antibody captured, human CD1a titrated, heterogeneous ligand model (kd 2)
Method: as §1, §2, §3

[15] = biological target: T7, Cynomolgus monkey CD1a protein (Cynomolgus monkey); test: ELISA, 0.1 µg/ml antibody
T7 chain: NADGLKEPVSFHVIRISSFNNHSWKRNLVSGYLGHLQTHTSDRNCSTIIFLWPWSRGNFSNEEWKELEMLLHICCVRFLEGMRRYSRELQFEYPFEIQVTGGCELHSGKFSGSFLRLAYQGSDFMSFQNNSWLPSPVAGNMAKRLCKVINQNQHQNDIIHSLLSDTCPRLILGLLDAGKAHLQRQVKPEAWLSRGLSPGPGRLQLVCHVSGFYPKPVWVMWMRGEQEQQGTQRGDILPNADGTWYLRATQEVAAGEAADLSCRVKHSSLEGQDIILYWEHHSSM

[16] = biological target: T1, human CD1a protein (pool B); test: SPR (Biacore T200), antibody captured, human CD1a titrated, heterogeneous ligand model (ka)
Method: as §1, §3

[17] = biological target: T2, human CD1a expressed on cells; test: flow cytometry, MOLT4 cells, 1 µg/ml antibody
Method: as §7, §8

[18] = biological target: T6, Cynomolgus monkey CD1a expressed on …; test: flow cytometry, HEK-293 cells, 1 µg/ml antibody
Method: as §4, §8

[19] = biological target: T2, human CD1a expressed on cells; test: flow cytometry, C1R cells, 0.1 µg/ml antibody
Method: as §4, §8

[20] = biological target: T2, human CD1a expressed on cells; test: flow cytometry, C1R cells, 10 µg/ml antibody
Method: as §4, §8

[21] = biological target: T1, human CD1a protein (pool B); test: SPR (Biacore T200), antibody captured, human CD1a titrated, heterogeneous ligand model (ka 2)
Method: as §1, §2, §3

[22] = biological target: T2, human CD1a expressed on cells; test: flow cytometry, HEK-293 cells, 0.1 µg/ml antibody
Method: as §4, §5

[23] = biological target: Chinese variant CD1a protein (human) (UniProt P06126); test: ELISA, 1 µg/ml antibody
[24] = biological target: T6, Cynomolgus monkey CD1a expressed on …; test: flow cytometry, HEK-293 cells, 0.1 µg/ml antibody
Method: as §4, §8

[25] = biological target: T2, human CD1a expressed on cells; test: flow cytometry, C1R cells, 1 µg/ml antibody
Method: as §4, §8

[26] = biological target: T2, human CD1a expressed on cells; test: flow cytometry, HEK-293 cells, 10 µg/ml antibody
Method: as §4, §5

[27] = biological target: T7, Cynomolgus monkey CD1a protein; test: ELISA, 10 µg/ml antibody
[28] = biological target: T1, human CD1a protein (pool B); test: SPR (Biacore T200), antibody captured, human CD1a titrated, heterogeneous ligand model (kd)
Method: as §1, §2, §3

[29] = biological target: T7, Cynomolgus monkey CD1a protein; test: ELISA, 0.01 µg/ml antibody
[30] = biological target: T1, human CD1a protein (pool B); test: SPR (Biacore T200), antibody captured, human CD1a titrated, heterogeneous ligand model (KD)
Method: as §1, §3

[31] = biological target: T6, Cynomolgus monkey CD1a expressed on …; test: flow cytometry, HEK-293 cells, 0.01 µg/ml antibody
Method: as §4, §8

[32] = biological target: T7, Cynomolgus monkey CD1a protein; test: ELISA, 1 µg/ml antibody

T1 sequence (P06126 18-295 limits assumed): as the sequence (P06126 18-295, change not shown) above

B1: 16 (VR11834) (antibody, V domains shown)
VH: EVQLVESGGGLVKPGGSLKLSCAASGFTFSNYAMSWVRQTPEKRLEWVAAINSNGGSAYYPDTVKDRFTISRDNAKNTLYLQMSSLRSEDTALYYCARRFYYDYGWFAYWGQGTLVTVSS
VL: DIVLTQSPASLSASVGETVTITCRASENIDSYLAWYQQKQGKSPQLLVYAATLLADGVPSRFSGSGSGTQYSLKINSLQSEDVARYYCQHYYSSPWTFGGGTKLEIK
notes: also called OX16; antibody 16
[1]
  Kd: 12.8 nM
[2]
  Fluorescence Intensity Geomean (normalized to background): 19.6 fold over background
[3]
  Optical Density (OD): 0.59 OD
[4]
  Optical Density (OD): 1.01 OD
[5]
  Fluorescence Intensity Geomean (normalized to background): 7.5 fold over background
[6]
  binding result: no binding
[7]
  binding result: no binding
[8]
  binding result: no binding
[9]
  Optical Density (OD): 1.44 OD
[10]
  Fluorescence Intensity Geomean (normalized to background): 8.8 fold over background
[11]
  Optical Density (OD): 1.3 OD
[12]
  Fluorescence Intensity Geomean (normalized to background): 14.4 fold over background
[13]
  Optical Density (OD): 0.7 OD
[14]
  koff: 0.00658 s⁻¹
[15]
  Optical Density (OD): 0.57 OD
[16]
  kon: 1.86e+06 M⁻¹ s⁻¹
[17]
  Fluorescence Intensity Geomean (normalized to background): 15 fold over background
[18]
  Fluorescence Intensity Geomean (normalized to background): 7.6 fold over background
[19]
  Fluorescence Intensity Geomean (normalized to background): 10.2 fold over background
[20]
  Fluorescence Intensity Geomean (normalized to background): 7 fold over background
[21]
  kon: 514000 M⁻¹ s⁻¹
[22]
  Fluorescence Intensity Geomean (normalized to background): 12.9 fold over background
[23]
  Optical Density (OD): 1.35 OD
[24]
  Fluorescence Intensity Geomean (normalized to background): 8.5 fold over background
[25]
  Fluorescence Intensity Geomean (normalized to background): 10.1 fold over background
[26]
  Fluorescence Intensity Geomean (normalized to background): 10.2 fold over background
[27]
  Optical Density (OD): 0.49 OD
[28]
  koff: 0.000729 s⁻¹
[29]
  Optical Density (OD): 0.46 OD
[30]
  Kd: 0.392 nM
[31]
  Fluorescence Intensity Geomean (normalized to background): 6.9 fold over background
[32]
  Optical Density (OD): 0.58 OD
